Data published in article PMC6023938, “Global pairwise RNA interaction landscapes reveal core features of protein recognition”.

Biological target: T1, TUT7 RNA-binding region (Homo sapiens, UniProt Q5VYS8 1362-1452)
T1 sequence: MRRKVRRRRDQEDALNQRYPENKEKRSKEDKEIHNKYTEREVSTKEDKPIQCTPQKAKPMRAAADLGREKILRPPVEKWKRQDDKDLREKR
Assay: fluorescence polarization; FP: 45 mM Tris-HCl pH 8.0, 90 mM NaCl, 0.2% Tween-20, 22 C, 60 min, 30 ul
Conditions: protein: recombinant; tags: GST fusion (expressed in BL21 codon plus); label: 5' Cy5

B1: top scoring Hamiltonian sequence for TUT7 (ssRNA)
RNA: GCAGUCUUAACGCUGCCUUA
B1: binds.
